Assay: soluble on expression in E. coli; label from the status in PepcDB or PDB records

| Sequence | soluble on expression in E. coli |
| --- | --- |
| GPGSMSGGLPRQFVLKVERHVPVNKGMGLAYPTVPGGSDVADADATPHAGAGERHQSNEAGGDMASGTLKDEAGSIHLSHEKETQTEEVPLPTCEANACDVDGTHCLSVDALDMAVRSNGAALRQMRSSSHLTAAFHTSASDDYGDSISPNPSDRQSFIGSLRVSYVELMSGESIPVYFPPSLGTSGGVEGKTMTLSEDLGCENQ | not soluble |
| MALVLTFLGKGGVGRTTVAIAAAKKLAQAGQRVLVLGQDPSLAWQWGITLSETAQGVEANVDGLLLSSTHLLERGWEKLKEVEAQYLRSPALKNIYGEELGVLPGMDEVLVLNALREYELSGRYDVLIYDGPGNLSTLRMLGIPEIASWYWRRFQKVLADSEVVQTLSPFVQPVASAVLSVNWSPDQMLNHPDGPQNLLQQGKAAIADPNRFAAYLVTSTDSLAQKAAQSYWGGAQQVGVTVKGVIQTPLGNGSLDANLFDPLLIAALPSYNQGNWQPLMDALPNPQAMGSAPRPLEIDVNARQVKVFLPGFDKRQVKLTQSGPELTIEAGDQRRNIDLPGNLRGKGVTGAKFQGGYLIVSFLEHHHHHH | not soluble |
| MPMTLGYWNIRGLAHSIRLLLEYTDSSYEEKKYTMGDAPDYDRSQWLNEKFKLGLDFPNLPYLIDGTHKITQSNAILRYIARKHNLCGESEKEQIREDILENQFMDSRMQLAKLCYDPDFEKLKPEYLQALPEMLKLYSQFLGKQPWFLGDKITFVDFIAYDVLERNQVFEPSCLDAFPNLKDFISRFEGLEKISAYMKSSRFLPRPVFSKMAVWGNK | soluble |
| MKRILLLGGITEALAIARKLGPEHIYSLAGVGRVPTDLACQLKVGGYGGAEGMAQYIRDQGVDLLLDATHPYAAQISRNAALAARIAGIPCWALRRTAWQPGPDDDWREVADWSALVTALAPFKRPLFTLGREPLQHLNEIPKHQFWTLRALDSYPGNDRCEVIGARGPFVLEDERQLFEQRNIDVLISKNSGSSSTEPKLDVARERGLPVLILKRPQLPDVDRILWSVDEVLGVLGLAETSPKPR | not soluble |
| MAHIVQTHKLTLHDVAIDQALVYSSDSNCAELKRTFQVELAHGYNEVKVQNLPFDLVQDSIRVSGAGEAVIHDVSVKNQEGAEFVIPERVLAIKAIFEEKERAKDKVADSRVAVQKRIEGLDNLITEVAKHGKDGAFHFDGRTIESLNALHGFHQDTTVDLRAQIRTLDQDLRKAEEEYARASQDYDNTGYRWRNSAQYASIIVESEAGGAAQLTITYQVNNVSWTPFYDIRVTAGVEAEMHVTYFGKVRQYSGEDWKTVPLVLSTARPAHGVKQLPKLGALEASIVVPEPECNRGGRGGYGGGYAQDSVVMACAAPMMEMGRSRKSMKMSYAAVKSSNIASEFSIGRPATIDDRTDEYKVNIGQFTLDTKLSNVTVPSRNATAFLVANSVNTSDYPLVAGQASIFLDGAFVNKTEFEDAVVSQKFEVSLGVDPNIRIEYKPVRNYQEQSGTVEKINSQVTEKTTAVTNLRPNSVLLTIREQLPRSTDSRIKVHLNTPEAVEVDEASVEPTVGAAITPEKILDYTVQLAPGQSSTFVVKYTTEHPQAEQIRYEEKF | not soluble |
| MGSDKIHHHHHHMKSHVRSFKTYIRDEIIKKGGWVNAHAHADRAFTMTPEKIGIYHSSNLQQKWDLVDEVKRTSSVDDYYARFCQSIELMISQGVTAFGTFVDIDPICEDRAIIAAHKAREVYKHDIILKFANQTLKGVIEPTARKWFDIGAEMVDMIGGLPYRDELDYGRGLEAMDILLDKAKSLGIMCHVHVDQFNNPSEKETEQLCDKTIEHGMEGRVVGIHGISIGSHSKEYRYKLYEKMRKAKMMMIACPMAWIDSNRKEDLMPFHNALTPADEMIPEVSLLP | not soluble |
| MSLMPFHLAIPVHDLPAARRFYGEVFGLSEGRSAEHWVDFDFFGHQLVIHQHPQTDSQRHAGSNPVDGHDVPVPHFGVVLAWDDWHALAERLQQRGTRFVIEPYIRFKGQVGEQATLFLFDPCGNALEFKSFRDMGQLFAKLEHHHHHH | soluble |
| MGSDKIHHHHHHMNAAENGLIPGAANSAGTKAYVARFAGTLADEHFSDFLNTRIKLSSLGVGTFPGGVDDVTDVAVAAIVARALQSGINVVDTGANYRLGRAGRAVGVGIAKAIAAGIQREEFFVVGKGGFLTFPDGRPEDPLTFFREEVAAKGLGKEEDLAQGVHCLSPEYIAWQLDTLRAQTGLGTLDVFLVDQPEVHIPLIGKEQMYRKLTDVFTMLEAAVQANKIRYYGISTFNACRVETDNTLFQSLTSLIGLAEKAAGQGNRHHLRVVQLPFNALMPEAYTRFSQVTGQGNIGSTIQAAFQLKLTIMASHPLGKGLLAREEVPSLQEAMPELADAAQRAIQFVRSTPGIGVTLVGLSTPLHLPDFLAVARQLPLSKERYLAMFEKEQ | not soluble |
| MLNSAPSETEKSETEGSETKESNLVIEDEEERKECTSVKKTEGHFTRQVDQVTKYDKDYIWSLVHSQLREGGLSQAASDLVMSYFEERYAYALEHIRFARTAEAIAEYVFNGVLSEWTKQLR | not soluble |
| MGSSHHHHHHSSGLVPRGSHMGEMLERQKKRLPSKAKYLKYTASITETGNHEADSSVIFRPHHSDVTCSNARRAESRTLPQICSCILLDHGRRTRPEVRTGMVSLHGSFKGFPCFGIRRGISHVLPGQKLRGSCDNWKKRQN | soluble |
| MGSDKIHHHHHHMEETNEMKDSKHLISNIQSQYTRLSKGQKLIAQYILNNYDKVAFMTACKLGETVGVSESTVVRFANALGYSGYPKLQAALQELIKNKLTTVQRVEMAHDYSDDFAILNKVLKSDIDNIRSTLEEIDERAFKEASNKLLRARKIYILGMRSSFVVAQYLGFYLDIILDNVHIIRMDMGDAFEQIVRINEEDVIVAISFPRYSKKSYQIVNYAKEKGAHVISLTDSLFAPVASLADNTLLVKSNMASFVDSLVPALSISNALAISVGMKEKEDIKQHFDDLEQIWKRYSVYE | not soluble |
| MGSDKIHHHHHHMIDARVKFRHLQTFVEVARQKSVVKAAELLHVTQPAVTKTIRELEEVLGVAVFEREGRGIKITRYGEVFLRHAGAALTALRQGLDSVSQERSGEGPPIRVGALPTVSTRIMPRAIALFLKEKTGARIKIVTGENAVLLEQLRIGDLDLVVGRLAAPDKMTGFSFEHLYSEQVVFAVRAGHPLISGRQSLFAHLSDYPVLMPTRASIIRPFVEHFLIANGIAGLPNQIETVSDSFGRAFVRSSDAIWIISAGVVATDIADGVLAALPVDTSETRGPVGLTMRTDAIPSLPLSILMQTLREVAGTAMAAEAKRTA | not soluble |
| MFFNKSLQQENQRLKQELYSLQQIQQSLDEEMLRLTLDAKGNVTSANQKFLQQLSLSDKDILAKHISDLVPSNVRNTDHFYRMKQSVQAKAFWNGAFQITKGDGEEAWLRVVIQPVRNASDQVESFFVFASELTRTITTSREYEDMLNALSRSMAVIEFTLDGTVLKANDNFLSTMGYKHEQIVGKHHRIFCLPEEANSSAYHDFWKRLASGQFVTDRFKRVDQHGSVVWLEASYNPIHNDRGELYKVVKFATNITQQVLQ | not soluble |
| MATFVRNAWYVAALPEELSEKPLGRTILDTPLALYRQPDGVVAALLDICPHRFAPLSDGILVNGHLQCPYHGLEFDGGGQCVHNPHGNGARPASLNVRSFPVVERDALIWIWPGDPALADPGAIPDFGCRVDPAYRTVGGYGHVDCNYKLLVDNLMDLGHAQYVHRANAQTDAFDRLEREVIVGDGEIQALMKIPGGTPSVLMAKFLRGANTPVDAWNDIRWNKVSAMLNFIAVAPEGTPKEQSIHSRGTHILTPETEASCHYFFGSSRNFGIDDPEMDGVLRSWQAQALVKEDKVVVEAIERRRAYVEANGIRPAMLSCDEAAVRVSREIEKLEQLEAARLEHHHHHH | soluble |
| DKSNKLQNLVAEQLVGCGFNEILNNSLTRAAYYDGLESYPSKNLVMLLNPLSADLNCMRQTLLFGGLESIAHNANRKNADLKFFEFGNCYHFDAEKKNPEKVLAPYSEDYHLGLWVTGKMVSNSWAHADENTSVYELKAYVENIFKRLGLDLHSLVVGNLSDDIYSTALTVNTKGGKRLATFGVVTKKMLKAFDVDNEVYYADLNWKELM | soluble |
| MSDVSLKLSAKDIYEKDFEKTMARGYRREEVDAFLDDIIADYQKMADMNNEVVKLSEENHKLKKELEELRLRVATSRPQDNKSFSSNNTTTNTSSNNVDILKRISNLEKAVFGK | not soluble |
| MSLSIAKNIENDPSKGWVVQKFGGTSVGKFPIKIAVDVAKEYLSTKRVALVCSARSTDTKAEGTTTRLIRATEAALRPAVGSVHDLVRIIETDHVQAARDFIQDVGIQDELIDAFHADCVELEQYLNAIRVLSEVSPRTRDLVIGMGERLSCRFMAAVLKDQGIDSEFIDMSHIIDEQREWRNLDASFYAYLASQLASKVTAVGNKVPVVTGFFGMVPGGLLSQIGRGYTDFCAALLAVGLNADELQIWKEVDGIFTADPRKVPTARLLPLITPEEAAELTYYGSEVIHPFTMSQVVHARIPIRIKNVGNPRGKGTVIFPDTISRHGSATPPHPPKIMPDDISASLANKGATAVTIKDTIMVINIQSNRKISAHGFLASIFAILDKYKLAVDLITTSEVHVSMALYEESDDGNMHEAFVELRRLGTLDILHGLAILSLVGKHMRNTTGYAGRMFCKLAEAQINIEMISQGASEINISCVIDEKMAVKALNVIHKELLEPLALHEVPSQASMLVEKPWLYSAEGHHHHHH | soluble |
| MKINWTEVKEKIRPQISKPSYETWFTNTTVYLEDDILTIYCPNEFARDWLESHYKELVFNTLREMFNTTFEIQFDLCNGEPSNLKDVQKEKLSSWDEVKKALRPKIAEKTFMTWIRNTNATIKDNKVIIFCEDAFHRDLLEGEYKNIISSTVQKITDEEYQIWFEIESSATSNAQVHHVKNNQRTSGQEESKTIWNKIKDKIQLKISRPSYETWVKETTARINEDSLIIYFENEFQQEWVKKSYKDLISQIAKELTGNTYEIQFELKSNTTSNNEKSTIKDITSELGEQFKVSNNSLKYNDVDESNKRIRALEEKIMNLEKVIGTLVEKLDAVELKTQLEKLEHHHHHH | not soluble |
| MGSDKIHHHHHHMVILHIIAGLEKGGAESTLKRLCLNGTEHEHVVVSLSTLGSVGLELQKAGVKVYCLDIRPSITSVAAIFRLYKIIKLRKPSVVQTWMYHADLVGGIVSRVAGVKKIYWGVHHTYLIKGQSKRVTIFISRINSVLSHFIPTKIVYCANSARVAQEKIGYNKKSGIVIFNGYDTSKFKRDLKLRSVYREKLGLKETDFVIGHVGRYDSLKDYPNLINAIRKVKYKVGGLKVILVGAGLSKDNRELLNVISESTLISKFHLLGPSDDIPGIMNAIDVFVLSSSSEAFPNVLNEAMACGTPCVSTDVGDASAIVGMTGWLSAAGDSSALAEKIYAAYKEFSENKANWEERQYSCRERIVTNFSSQSMVSNYTLLWQS | not soluble |
| MKIEVVSALPHSTVHSAVLSRRHRSVICAGPYEVLPLEGCSEPLPSTSTLSELPIECLRLSTDERTIGAATNAILKVADIITGHEVRNLTGHTLPITSLAASKFNPYCWYTGSSDCDWTQWDTRMNPSKIFGSKTPGVVRSIALSPGDRYVAVGTDETIQIFDARQREFIKTFNCSGHALELHPSDVLLSSVGHDRIVRFFCLETFEMISQSDPFLDDIQASAFDTHVMIAATNDSINLLTWEPCCDILTTVPLKNVEKVVNVNANGLDLDFICIGDNTERLEMRTYAIEELLSYSPSHELCGSIYEEDEDVDNSPIDEVKALPELTELSNLPPRSPGLSCEETETSASPVNSSSSHSSPTSPVKPAPVKHRSASQKLPGKSTKTLNPKPAGSTRSVTPVSTKPPRTFGTAKSVIVSSKPSLSGYNNRANPSPSMSDLRTTKSMAGSTTSLLSERAPKKRSTSSRRNQEPITITYIGRPRTPSEGDVASTVSSSTSRNRRPSPSVAKKTSPPSIYAITSSPAKRASSTASGPTARRQNSTSSVTSTTSAKTPVGVWGACIETVHDIGIVAKKENRNIRRLKMLTSRRTSNVDIPPEVCSDEQLVLTATRILSRRNDWSLNSCHAYLPVIIDNIASVDVTNRAIALEGLAAIADTLGERLVKFASMNSHRIGVDVAAEERAEKAKACVQHLRSLVKKRDWYYKQLDEPSILKLDPILELLKKI | not soluble |
